Results as given in article PMC12730240 (Biosensors, 2025).

Target: T1, Shiga toxin 2 (E. coli (Shiga toxin-producing, STEC))
T1 construct: source: similarly expressed and purified as previously described [29]; copies: + 5
Assay: pull-down
Settings: both partners purified

B1: nanobody G1 (NG1), biotinylated (VHH)
VHH: QVQLVESGGGLVQPGESLRLSCVASASTFSTSLMGWVRQAPGKGLESVAEVRTTGGTFYAKSVAGRFTISRDNAKNTLYLQMNSLKAEDTGVYYCTAGAGPIATRYRGQGTQVTVSS
notes: also called B2; source: E. coli SHuffle T7, purified (Ni-NTA IMAC)
binding result: binds
